Experimental data: US20250027068A1 (published 2025)

Target: pooled human IgG (human)
Experiment: cell-based or functional assay
Note: test concentration or dose not given here.

Binder	Enzyme Activity Endpoint Assay (purified): Fab′2 [ng/µL]	Enzyme Activity Endpoint Assay (purified): Fc [ng/µL]	Enzyme Activity Endpoint Assay (purified): IgG [ng/µL]	Enzyme Activity Endpoint Assay (purified): scIgG [ng/µL]
PRT-215 (enzyme) MEVVEVWPYGQNPNGKTEILSQTEDSESLQRLRDIEDFQAEKKKEGVVYTKWLDGVTVKDHDFRKIVDGNIEYYATPLLNGRGWYDINKDFNRDSDKCAAAVAANMFHYWLDRNRDNVDRFLKQNPEKHGIIELPDGQLKLSDFLNTYESDNGYRDKSKLFDFISKNFNGPVWTDKLLDNYINGYGYNYKYGRTIEDPTKNTSKINFFKKVFNEKILTDIHSIRNQNEFSDLLSEALYTGKAIGLSYGPAGLRHSLGHIISVWGADFDEDGNVVAIYVTDSDDKKLTIGDERVGLKRYKVSTDDEGRARLTAYTETDNTGGQVRGLWTLDTGTQAWADYFDKTEQTGTDQAEQLEHHHHHH	73	310	708	309
PRT-221 (enzyme) MEVVEVWPYGQNPNGKTEILSQTEDSESLQRLRDIEDFQAEKKMQNVVYTKWLDGVDVKDHDFRKIVDGNIAYYATPLLNGRGFYDINKDFNRDSDKCAAAVAANMFHYWLDINRDNVDRFLRQNPEKHGIIELPDGQLKLSDFLNTYESDHGYRDKSKLFDFISNNFNGPVWTDKLLDNYINGYAYNYKYGRTIEDPTKNTSKINFFKEVFNEKILTNNHSIRNQNEFSVLLSEALYTGKAIGLSYGPAGLRHSLGHIISVWGADLDADGNVVAIYVTDSDDKKLTIGDERVGLKRYKISTDDENRLRLTAYEETHNTGGQIRGLWTLDTGKQAWADYFDKTEQTGTDQAEQLEHHHHHH	117	439	653	461
PRT-225 (enzyme) MEVVEVWPYGQNPNGKTEILSQTEDSESLQRLRDIEDFQAEKKKENVVYTKWLDGVDVKDHDFRKIVDGNIEYYATPLLNGRGFYDINKDFNRDSDKCAAAVAANMFHYWLDINRDNVDRFLRQNPEKHGIIELPDGQLKLSDFLNTYESDHGYRDKSKLFDFISNNFNGPVWTDKLLDNYINGYAYNYKYGRTIEDPTKNTSKINFFKEVFNEKILTNNHSIRNQNEFSVLLSEALYTGKAIGLSYGPAGLRHSLGHIISVWGADLDADGNVVAIYVTDSDDKKLTIGDERVGLKRYKISTDDENRARLTAYEETDNTGGQIRGLWTLDTGKQAWADYFDKTEQTGTDQAEQLEHHHHHH	0	63	1500	0
PRT-224 (enzyme) MEVVEVWPYGQNPNGKTEILSQTEDSESLQRLRDIEDFQAEKKKQNVVYTKWLDGVDVKDHDFRKIVDGNIAYYATPLLNGRGFYDINKDFNRDSDKCAAAVAANMFHYWLDINRDNVDRFLRQNPEKHGIIELPDGQLKLSDFLNTYESDHGYRDKSKLFDFISNNFNGPVWTDKLLDNYINGYAYNYKYGRTIEDPTKNTSKINFFKEVFNEKILTNNHSIRNQNEFSVLLSEALYTGKAIGLSYGPAGLRHSLGHIISVWGADLDADGNVVAIYVTDSDDKKLTIGDERVGLKRYKISTDDEGRLRLTAYEETHNTGGQIRGLWTLDTGKQAWADYFDKTEQTGTDQAEQLEHHHHHH	217	382	344	314
PRT-226 (enzyme) MEVVEVWPYGQNPNGKTEILSQTEDSESLQRLRDIEDFQAEKKKQNVVYTKWLDGVDVDDHDFRKIVDGNTEYYATPLLNGRGFYDINKDFNRDSDKCAAAVAANMFHYWLDRNRDNVDRFLRQNPEKHGIIELPDGQLKLSDFLNTYESDHGYRDKSKLFDFISNNFNGPVWTNKLLDNYINGYGYNYKYGRTIEDPTKNTSKINFFKEVFNEKILTNNHSIRNQNEFSVLLSEALYTGKAIGLSYGPAGLRHSLGHIISVWGADLDADGNVVAIYVTDSDDKKLTIGDERVGLKRYKISTDDEGRARLTAYEETDNTGGQIRGLWTLDTGKQAWADYFDKTEQTGTDQAEQLEHHHHHH	0	0	1960	0
PRT-222 (enzyme) MEVVEVWPYGQNPNGKTEILSQTEDSESLQRLRDIEDFQAEKKMQNVVYTKWLDGVDVKDHDFRKIVDGNIAYYATPLLNGRGFYDINKDFNRDSDKCAAAVAANMFHYWLDINRDNVDRFLRQNPEKHGIIELPDGQLKLSDFLNTYESDHGYRDKSKLFDFISNNFNGPVWTDKLLDNYINGYAYNYKYGRTIEDPTKNTSKINFFKEVFNEKILTNNHSIRNQNEFSVLLSEALYTGKAIGLSYGPAGLRHSLGHIISVWGADLDADGNVVAIYVTDSDDKKLTIGDERVGLKRYKISTDDEGRLRLTAYEETHNTGGQIRGLWTLDTGKYAWADYFDKTEQTGTDQAEQLEHHHHHH	487	78	1550	21
PRT-223 (enzyme) MEVVEVWPYGQNPNGKTEILSQTEDSESLQRLRDIEDFQAEKKKENVVYTKWLDGVDVKDHDFRKIVDGNIAYYATPLLNGRGFYDINKDFNRDSDKCAAAVAANMFHYWLDINRDNVDRFLRQNPEKHGIIELPDGQLKLSDFLNTYESDHGYRDKSKLFDFISNNFNGPVWTDKLLDNYINGYAYNYKYGRTIEDPTKNTSKINFFKEVFNEKILTNNHSIRNQNEFSDLLSEALYTGKAIGLSYGPAGLRHSLGHIISVWGADLDADGNVVAIYVTDSDDKKLTIGDERVGLKRYKISTDDENRLRLTAYEETHNTGGQIRGLWTLDTGKQAWADYFDKTEQTGTDQAEQLEHHHHHH	189	391	375	316
PRT-216 (enzyme) MEVVEVWPYGQNPNGKTEILSQTEDSESLQRLRDIEDFQAEKKKENVVYTKWLDGVDVDDHDFRKIVDGNTEYYATPLLNGRGWYDINKDFNRDSDKCAAAVAANMFHYWLDQNRDNIDRFLRQSPEKHGIIELPDGQLKLSDFLNTYESDDGYRDKSKLFDFISNNFNGPVWTDKLLDNYINGYGYNYKYGRTIEDPTKNNSKINFFKKVFNGKILTDNHSIRNYNTFSDLLSEALYTGKAIGLSYGPAGLRHSLGHIISVWGADLDADGNVVAIYVTDSDDKKLTIGDERVGLKRYKISYDDENRARLTAYEENDNTGGQIRGLETLDTGKQAWADYFDKTEQTGTDQAEQLEHHHHHH	0	0	1660	0
PRT-217 (enzyme) MEVVEVWPYGQNPNGKTEILSQTEDSESLQRLRDIEDFQAEKKKQNVVYTKWLDGVTVDDSDFRKIKDGNTEYYATPLLNGRGFYDINKDFNRDSDKCAAAVAANMFHYWLDRNRDNVDRFLKQNPEKHGIIELPDGQLKLSDFLNTYESDNNYRDKSKLFDFISKNFNGPVWTNKLLDNYINGYGYNYKYGRTIEDPTKNTSKINFFKKVFNEKILTNVHQIFNYNEFSTLLSEALYTGKAIGLSYGPGGLRHSLGHIISVWGADLDADGNVVAIYVTDSDDKKLTIGDERVGLKRYKISTDDEGRARLTAYTETDNTGGQVRGIYTLDTGKQAWADYFDKTEQTGTDQAEQLEHHHHHH	0	86	1580	41
PRT-219 (enzyme) MEVVEVWPYGQNPNGKTEILSQTEDSESLQRLRDIEDFQAEKKKQNVVYTKWLDGVTVDDSDFRKIKDGNTEYYATPLLNGRGFYDINKDFNRDSDKCAAAVAANMFHYWLDRNRDNVDRFLKQNPEKHGIIELPDGQLKLSDFLNTYESDNNYRDKSKLFDFISKNFNGPVWTNKLLDNYINGYGYNYKYGRTIEDPTKNTSKINFFKKVFNEKILTNVHQIFNYNEFSTLLSEALYTGKAIGLSYGPGGLRHSLGHIISVWGADLDADGNVVAIYVTDSDDKKLTIGDERVGLKRYKISTDDEGRARLTAYTETDNTGGQVRGIWTLDTGKQAWADYFDKTEQTGTDQAEQLEHHHHHH	104	407	886	443
PRT-218 (enzyme) MEVVEVWPYGQNPNGKTEILSQTEDSESLQRLRDIEDFQAEKKKQGVVYTKWLDGVNVDDHEFRKITDGNTEYYATPLLNGRGYYDINKDFNRDSDKCAAAVAANMFHYWLDRNRDNVDRFLRQNPDKHGIIELPDGQLKLSDFLNTYESDHDYRDKSKLFDFISNNFNGPVWTNKLLDNYINGYGYNYKYGRTIEDPTKNTSKINFFKEVFNGKLLTDNHSIRNKNEFSSKLSEALYTGKAIGLSYGPAGLRHSLGHIISVWGADLDEDGNVVAIYVTDSDDKKLTIGDERVGLKRYKVSYDDEGRARLTAYEETDNTGGEIRGLYTLDTGKQYWADYFDKTEQTGTDQAEQLEHHHHHH	0	39	1780	0
PRT-220 (enzyme) MEVVEVWPYGQNPNGKTEILSQTEDSESLQRLRDIEDFQAEKKKQGVVYTKWLDGVNVDDHEFRKITDGNTEYYATPLLNGRGYYDINKDFNRDSDKCAAAVAANMFHYWLDRNRDNVDRFLRQNPDKHGIIELPDGQLKLSDFLNTYESDHDYRDKSKLFDFISNNFNGPVWTNKLLDNYINGYGYNYKYGRTIEDPTKNTSKINFFKEVFNGKLLTDNHSIRNKNEFSSKLSEALYTGKAIGLSYGPAGLRHSLGHIISVWGADLDEDGNVVAIYVTDSDDKKLTIGDERVGLKRYKVSYDDEGRARLTAYEETDNTGGEIRGLWTLDTGKQYWADYFDKTEQTGTDQAEQLEHHHHHH	0	61	2320	0
